Source: article PMC5584586

What was measured:
Assay in all cases: SPR
[1] = target: human FcγRIIIA 176V, HIS-tagged (human) (UniProt P08637)
[2] = target: human FcγRI, HIS-tagged (human) (UniProt P12314)
[3] = target: human FcγRIIA 167R, HIS-tagged (human) (UniProt P12318)
[4] = target: human FcγRIIA 167H, HIS-tagged (human) (UniProt P12318)
[5] = target: human FcγRIIB, HIS-tagged (human) (UniProt P31994)
[6] = target: human FcγRIIIA 176F, HIS-tagged (human) (UniProt P08637)

Sequence of UniProt P12314 (P12314 16-374): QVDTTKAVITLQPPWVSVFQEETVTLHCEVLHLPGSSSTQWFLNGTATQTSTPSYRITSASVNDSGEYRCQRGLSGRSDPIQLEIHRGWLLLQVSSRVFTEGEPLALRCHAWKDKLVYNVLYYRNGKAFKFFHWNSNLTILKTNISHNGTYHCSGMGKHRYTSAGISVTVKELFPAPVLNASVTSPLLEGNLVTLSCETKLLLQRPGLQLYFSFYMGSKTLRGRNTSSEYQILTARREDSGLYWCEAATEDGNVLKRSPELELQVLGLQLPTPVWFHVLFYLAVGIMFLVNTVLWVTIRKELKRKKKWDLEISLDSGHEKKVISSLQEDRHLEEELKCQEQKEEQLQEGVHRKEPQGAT
Sequence of UniProt P31994 (P31994 43-310): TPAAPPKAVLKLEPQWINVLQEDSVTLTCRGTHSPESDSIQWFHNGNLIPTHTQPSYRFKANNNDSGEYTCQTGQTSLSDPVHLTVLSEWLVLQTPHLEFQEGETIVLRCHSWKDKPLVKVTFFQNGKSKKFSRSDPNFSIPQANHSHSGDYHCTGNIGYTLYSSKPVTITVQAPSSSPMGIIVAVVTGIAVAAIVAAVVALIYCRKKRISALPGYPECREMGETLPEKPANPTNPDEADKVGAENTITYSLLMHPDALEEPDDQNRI

Substance | Kd [1] | Kd [2] | Kd [3] | Kd [4] | Kd [5] | Kd [6]
TA99 hIgG1 wild-type, glycosylated (from UniProt P01857 1-399) (antibody) | 1.7 µM | – | 8.02 µM | 1.15 µM | 3.52 µM | 4.54 µM
TA99 hIgG1 N297H/S298A/K326I/A327Y/L328G, aglycosylated (antibody) | 1.79 µM | – | – | – | – | 1.68 µM
TA99 hIgG1 N297Q, aglycosylated (antibody) | – | 0.295 µM | – | – | – | –

Now from value to substance:

Kd [1] | Kd [2] | Kd [3] | Kd [4] | Kd [5] | Kd [6] | Substance
0.452 µM | 0.243 µM | 2.49 µM | 0.605 µM | 2.1 µM | 1.24 µM | TA99 hIgG1 T299A/K326I/A327Y/L328G, aglycosylated (antibody)
– | – | > 10 µM | 0.996 µM | 6.45 µM | – | TA99 hIgG1 S298G/T299A, aglycosylated (antibody)
1.04 µM | 0.005 µM | 2.73 µM | – | – | 1.81 µM | TA99 hIgG1 N297D/S298T/K326I/A327Y/L328G, aglycosylated (antibody)
0.348 µM | – | – | 1.09 µM | 6.5 µM | – | human IgG1 used as a control on Biacore (antibody)
1.05 µM | 0.029 µM | > 10 µM | – | – | 2.23 µM | TA99 hIgG1 N297D/S298A/K326I/A327Y/L328G, aglycosylated (antibody)
